# Assay results reported in patent US20240409645A1 (DUALYX, published 2024).
# T1: human IL-2 receptor (IL-2Rα/IL-2Rβ/γc) (human, UniProt P01589 22-272; P14784 27-551; P31785 23-369)
# T1 sequence 1: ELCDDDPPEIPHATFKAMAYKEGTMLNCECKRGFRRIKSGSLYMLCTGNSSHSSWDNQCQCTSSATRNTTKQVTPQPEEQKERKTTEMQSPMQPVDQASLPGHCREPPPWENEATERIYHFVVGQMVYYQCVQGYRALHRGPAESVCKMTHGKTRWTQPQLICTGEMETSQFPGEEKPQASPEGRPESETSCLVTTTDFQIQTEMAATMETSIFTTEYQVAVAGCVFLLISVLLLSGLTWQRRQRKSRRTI
# T1 sequence 2: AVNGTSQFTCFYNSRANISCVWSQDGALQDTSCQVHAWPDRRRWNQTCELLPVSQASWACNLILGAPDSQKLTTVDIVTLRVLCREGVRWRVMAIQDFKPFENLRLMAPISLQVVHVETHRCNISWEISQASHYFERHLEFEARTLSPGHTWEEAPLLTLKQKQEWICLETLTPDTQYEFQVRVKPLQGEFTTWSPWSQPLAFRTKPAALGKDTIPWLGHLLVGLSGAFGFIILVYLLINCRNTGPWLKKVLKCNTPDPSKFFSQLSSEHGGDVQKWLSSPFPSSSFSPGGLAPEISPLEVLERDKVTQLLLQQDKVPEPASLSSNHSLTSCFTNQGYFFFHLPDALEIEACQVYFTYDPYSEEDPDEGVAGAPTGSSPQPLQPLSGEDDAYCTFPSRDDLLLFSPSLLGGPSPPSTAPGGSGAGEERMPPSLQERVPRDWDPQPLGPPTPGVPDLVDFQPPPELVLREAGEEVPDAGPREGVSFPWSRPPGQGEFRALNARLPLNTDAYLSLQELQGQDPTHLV
# T1 sequence 3: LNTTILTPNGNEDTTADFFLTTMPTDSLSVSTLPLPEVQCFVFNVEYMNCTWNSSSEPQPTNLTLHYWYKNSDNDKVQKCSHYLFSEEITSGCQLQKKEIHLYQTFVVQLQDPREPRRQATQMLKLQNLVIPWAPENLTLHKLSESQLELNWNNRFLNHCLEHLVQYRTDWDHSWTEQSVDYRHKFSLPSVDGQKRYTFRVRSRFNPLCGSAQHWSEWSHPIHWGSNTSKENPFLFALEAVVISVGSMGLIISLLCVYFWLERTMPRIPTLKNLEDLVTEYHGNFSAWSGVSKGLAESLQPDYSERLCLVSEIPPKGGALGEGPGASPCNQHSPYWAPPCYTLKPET
# Molecular target: T1, human IL-2 receptor (IL-2Rα/IL-2Rβ/γc)
# Assay: cell-based or functional assay
"EC50 (nM) pSTAT5, NK, human PBMCs","EC50 (nM) pSTAT5, Treg, human PBMCs",Fold Max signal (% pSTAT5+) Treg/NK,"Max signal (% pSTAT5+), NK","Max signal (% pSTAT5+), Treg",fold EC50 NK/Treg,Binder
0.0307 nM,< 0.1 pM,4 fold,22 % pSTAT5+,93 % pSTAT5+,> 307 fold,DC00062 (other) chain 1: EVQLVESGGGLVQTGGSLRLSCAASGGTFSRDAMAWFRQVPGKEREFVALISWSGATTNYADSVKGRFAISRDNGKNTVYLQMNRLKPADTAIYYCAADRRPMGSRSYFEPTEYDDWGQGTQVTVSSGGGGSGGGGSGGGGSQVQLVESGGGLVQPGGSLRLSCATSGFTFRNNFMSWVRQAPGKGLEWVSTISYGGESTTYAESVKGRFTISRDNAKNTLYLQMNNLKPEDTAVYYCAKATSYDSIRSGSRGQGTQVTVSSDKTHTCPPCPAPEAAGGPSVFLFPPKPKDTLMISRTPEVTCVVVDVSHEDPEVKFNWYVDGVEVHNAKTKPREEQYNSTYRVVSVLTVLHQDWLNGKEYKCKVSNKALGAPIEKTISKAKGQPREPQVYTLPPSRDELTKNQVSLTCLVKGFYPSDIAVEWESNGQPENNYKTTPPVLDSDGSFLLYSKLTVDKSRWQQGNVFSCSVMHEALHNHYTQKSLSLSPGK chain 2: EVQLVESGGGLVQTGGSLRLSCAASGGTFSRDAMAWFRQVPGKEREFVALISWSGATTNYADSVKGRFAISRDNGKNTVYLQMNRLKPADTAIYYCAADRRPMGSRSYFEPTEYDDWGQGTQVTVSSGGGGSGGGGSGGGGSQVQLVESGGGLVQPGGSLRLSCATSGFTFRNNFMSWVRQAPGKGLEWVSTISYGGESTTYAESVKGRFTISRDNAKNTLYLQMNNLKPEDTAVYYCAKATSYDSIRSGSRGQGTQVTVSSGGGGSGGGGSGGGGSQVQLVESGGGLVQAGGSLTLSCAAPGRTFGTDVVGWFRQAPGKEREFVASISRSGDGIYYDDSVKGRFTISRNNAWNTVNLQMNSLKVEDTAVYYCAAGDGWSTYDYWGQGTQVTVSSGGGGSGGGGSGGGGSDKTHTCPPCPAPEAAGGPSVFLFPPKPKDTLMISRTPEVTCVVVDVSHEDPEVKFNWYVDGVEVHNAKTKPREEQYNSTYRVVSVLTVLHQDWLNGKEYKCKVSNKALGAPIEKTISKAKGQPREPQVYTLPPSRDELTKNQVSLTCLVKGFYPSDIAVEWESNGQPENNYKTTPPVLDSDGSFFLYSRLTVDKSRWQQGNVFSCSVMHEALHNHYTQKSLSLSPGK
0.178 nM,< 0.1 pM,4 fold,27 % pSTAT5+,96 % pSTAT5+,> 1780 fold,DC00066 (other) chain 1: EVQLVESGGGLVQTGGSLRLSCAASGGTFSRDAMAWFRQVPGKEREFVALISWSGATTNYADSVKGRFAISRDNGKNTVYLQMNRLKPADTAIYYCAADRRPMGSRSYFEPTEYDDWGQGTQVTVSSGGGGSGGGGSGGGGSQVQLVESGGGLVQPGGSLRLSCATSGFTFRNNFMSWVRQAPGKGLEWVSTISYGGESTTYAESVKGRFTISRDNAKNTLYLQMNNLKPEDTAVYYCAKATSYDSIRSGSRGQGTQVTVSSDKTHTCPPCPAPEAAGGPSVFLFPPKPKDTLMISRTPEVTCVVVDVSHEDPEVKFNWYVDGVEVHNAKTKPREEQYNSTYRVVSVLTVLHQDWLNGKEYKCKVSNKALGAPIEKTISKAKGQPREPQVYTLPPSRDELTKNQVSLTCLVKGFYPSDIAVEWESNGQPENNYKTTPPVLDSDGSFLLYSKLTVDKSRWQQGNVFSCSVMHEALHNHYTQKSLSLSPGK chain 2: QVQLVESGGGLVQPGGSLRLSCATSGFTFRNNFMSWVRQAPGKGLEWVSTISYGGESTTYAESVKGRFTISRDNAKNTLYLQMNNLKPEDTAVYYCAKATSYDSIRSGSRGQGTQVTVSSGGGGSGGGGSGGGGSEVQLVESGGGLVQTGGSLRLSCAASGGTFSRDAMAWFRQVPGKEREFVALISWSGATTNYADSVKGRFAISRDNGKNTVYLQMNRLKPADTAIYYCAADRRPMGSRSYFEPTEYDDWGQGTQVTVSSGGGGSGGGGSGGGGSQVQLVESGGGLVQAGGSLTLSCAAPGRTFGTDVVGWFRQAPGKEREFVASISRSGDGIYYDDSVKGRFTISRNNAWNTVNLQMNSLKVEDTAVYYCAAGDGWSTYDYWGQGTQVTVSSGGGGSGGGGSGGGGSDKTHTCPPCPAPEAAGGPSVFLFPPKPKDTLMISRTPEVTCVVVDVSHEDPEVKFNWYVDGVEVHNAKTKPREEQYNSTYRVVSVLTVLHQDWLNGKEYKCKVSNKALGAPIEKTISKAKGQPREPQVYTLPPSRDELTKNQVSLTCLVKGFYPSDIAVEWESNGQPENNYKTTPPVLDSDGSFFLYSRLTVDKSRWQQGNVFSCSVMHEALHNHYTQKSLSLSPGK
0.186 nM,< 0.1 pM,2 fold,38 % pSTAT5+,94 % pSTAT5+,> 1860 fold,DC00064 (other) chain 1: EVQLVESGGGLVQTGGSLRLSCAASGGTFSRDAMAWFRQVPGKEREFVALISWSGATTNYADSVKGRFAISRDNGKNTVYLQMNRLKPADTAIYYCAADRRPMGSRSYFEPTEYDDWGQGTQVTVSSGGGGSGGGGSGGGGSQVQLVESGGGLVQPGGSLRLSCATSGFTFRNNFMSWVRQAPGKGLEWVSTISYGGESTTYAESVKGRFTISRDNAKNTLYLQMNNLKPEDTAVYYCAKATSYDSIRSGSRGQGTQVTVSSDKTHTCPPCPAPEAAGGPSVFLFPPKPKDTLMISRTPEVTCVVVDVSHEDPEVKFNWYVDGVEVHNAKTKPREEQYNSTYRVVSVLTVLHQDWLNGKEYKCKVSNKALGAPIEKTISKAKGQPREPQVYTLPPSRDELTKNQVSLTCLVKGFYPSDIAVEWESNGQPENNYKTTPPVLDSDGSFLLYSKLTVDKSRWQQGNVFSCSVMHEALHNHYTQKSLSLSPGK chain 2: QVQLVESGGGLVQPGGSLRLSCATSGFTFRNNFMSWVRQAPGKGLEWVSTISYGGESTTYAESVKGRFTISRDNAKNTLYLQMNNLKPEDTAVYYCAKATSYDSIRSGSRGQGTQVTVSSGGGGSGGGGSGGGGSQVQLVESGGGLVQAGGSLTLSCAAPGRTFGTDVVGWFRQAPGKEREFVASISRSGDGIYYDDSVKGRFTISRNNAWNTVNLQMNSLKVEDTAVYYCAAGDGWSTYDYWGQGTQVTVSSGGGGSGGGGSGGGGSEVQLVESGGGLVQTGGSLRLSCAASGGTFSRDAMAWFRQVPGKEREFVALISWSGATTNYADSVKGRFAISRDNGKNTVYLQMNRLKPADTAIYYCAADRRPMGSRSYFEPTEYDDWGQGTQVTVSSGGGGSGGGGSGGGGSDKTHTCPPCPAPEAAGGPSVFLFPPKPKDTLMISRTPEVTCVVVDVSHEDPEVKFNWYVDGVEVHNAKTKPREEQYNSTYRVVSVLTVLHQDWLNGKEYKCKVSNKALGAPIEKTISKAKGQPREPQVYTLPPSRDELTKNQVSLTCLVKGFYPSDIAVEWESNGQPENNYKTTPPVLDSDGSFFLYSRLTVDKSRWQQGNVFSCSVMHEALHNHYTQKSLSLSPGK
